From patent US20190218308A1 (INNATE PHARMA, published 2019)

Key:
[1] = target: T1, Human CD39-L2, also known as NTPDase6 or ENTPD6 (human, UniProt O75354 61-484, limits assumed); experiment: ELISA on coated recombinant human CD39-L2 (panel huCD39 L2)
T1 construct: Recombinant protein coated in ELISA
T1 sequence: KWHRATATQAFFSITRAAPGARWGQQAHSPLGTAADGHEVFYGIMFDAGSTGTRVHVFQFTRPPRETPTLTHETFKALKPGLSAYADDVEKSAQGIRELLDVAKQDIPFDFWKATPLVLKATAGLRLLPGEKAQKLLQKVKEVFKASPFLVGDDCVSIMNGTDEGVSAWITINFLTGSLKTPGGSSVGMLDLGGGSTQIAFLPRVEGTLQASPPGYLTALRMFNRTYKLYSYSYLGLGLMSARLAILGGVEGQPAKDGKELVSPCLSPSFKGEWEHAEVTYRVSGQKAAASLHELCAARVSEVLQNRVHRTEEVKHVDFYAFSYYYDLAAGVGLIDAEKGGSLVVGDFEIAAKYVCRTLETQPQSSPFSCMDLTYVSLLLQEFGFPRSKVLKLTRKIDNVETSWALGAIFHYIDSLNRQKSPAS
Protocol: (§1) Wells were washed in TBS Tween 20, and further saturated 2H at RT in TBS Blocking buffer. Dose range concentration of primary antibody was incubated in TBS blocking buffer for 2 h at RT. Wells were washed in TBS Tween 20. […] Optical density was measured on Enspire™ at OD=450.

[2] = target: T2, Human CD39-L4, also known as NTPDase5 or ENTPD5 (human, UniProt O75356 25-428); experiment: ELISA on coated recombinant human CD39-L4 (panel huCD39 L4)
T2 construct: Recombinant protein coated in ELISA
T2 sequence: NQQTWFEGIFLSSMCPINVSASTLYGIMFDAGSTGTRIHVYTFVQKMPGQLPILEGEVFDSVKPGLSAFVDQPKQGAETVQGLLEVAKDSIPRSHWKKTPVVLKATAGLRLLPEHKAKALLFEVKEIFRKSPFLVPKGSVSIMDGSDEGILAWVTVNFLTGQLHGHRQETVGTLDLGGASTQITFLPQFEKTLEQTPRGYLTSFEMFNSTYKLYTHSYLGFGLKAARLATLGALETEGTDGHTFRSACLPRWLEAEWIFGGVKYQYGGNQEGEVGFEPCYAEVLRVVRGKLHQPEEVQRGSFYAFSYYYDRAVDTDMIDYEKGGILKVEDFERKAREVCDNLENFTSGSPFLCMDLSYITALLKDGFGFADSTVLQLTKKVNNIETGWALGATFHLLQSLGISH
Protocol: as §1

CD39 mutant 19 = target: T3, CD39 mutant 19 (human, UniProt P49961 1-510); experiment: flow cytometry, Hek-293T cells transfected with CD39 mutant 19 (panel M19); antibody concentration not shown
T3 construct: Expressed on Hek-293T cells; also called M19
T3 chain: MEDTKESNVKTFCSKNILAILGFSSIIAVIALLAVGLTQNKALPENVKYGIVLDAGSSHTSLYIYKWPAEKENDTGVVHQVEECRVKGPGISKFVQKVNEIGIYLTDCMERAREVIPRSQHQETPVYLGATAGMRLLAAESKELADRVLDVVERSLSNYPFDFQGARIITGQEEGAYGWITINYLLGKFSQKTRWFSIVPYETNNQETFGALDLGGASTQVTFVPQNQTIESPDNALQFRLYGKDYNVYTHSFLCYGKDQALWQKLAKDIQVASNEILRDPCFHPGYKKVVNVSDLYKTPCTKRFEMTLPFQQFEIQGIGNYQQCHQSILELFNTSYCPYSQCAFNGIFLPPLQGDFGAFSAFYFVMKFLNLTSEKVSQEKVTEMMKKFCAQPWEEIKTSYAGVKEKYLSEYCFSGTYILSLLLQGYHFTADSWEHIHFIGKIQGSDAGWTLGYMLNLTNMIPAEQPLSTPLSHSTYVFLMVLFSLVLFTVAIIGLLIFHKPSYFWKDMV
Protocol: (§2) Mutants were transfected in Hek-293T cells, as shown in the table 1, using numbering of SEQ ID NO: 2. […] Mutant 19 includes substitutions at residues R138, M139 and E142.
(§3) Mutants were transfected in Hek-293T cells, as shown in the table 1, using numbering of SEQ ID NO: 2. Dose-ranges of test antibodies (10-2.5-0.625-0.1563-0.0391-0.0098-0.0024-0.0006 μg/ml) are tested on the 20 generated mutants by flow cytometry.

CD39 mutant 15 = target: T4, CD39 mutant 15 (human, UniProt P49961 1-510); experiment: flow cytometry, Hek-293T cells transfected with CD39 mutant 15 (panel M15), table under the panel; unstained (US) 8,98; antibody concentration not shown
T4 construct: Expressed on Hek-293T cells; also called M15
T4 chain: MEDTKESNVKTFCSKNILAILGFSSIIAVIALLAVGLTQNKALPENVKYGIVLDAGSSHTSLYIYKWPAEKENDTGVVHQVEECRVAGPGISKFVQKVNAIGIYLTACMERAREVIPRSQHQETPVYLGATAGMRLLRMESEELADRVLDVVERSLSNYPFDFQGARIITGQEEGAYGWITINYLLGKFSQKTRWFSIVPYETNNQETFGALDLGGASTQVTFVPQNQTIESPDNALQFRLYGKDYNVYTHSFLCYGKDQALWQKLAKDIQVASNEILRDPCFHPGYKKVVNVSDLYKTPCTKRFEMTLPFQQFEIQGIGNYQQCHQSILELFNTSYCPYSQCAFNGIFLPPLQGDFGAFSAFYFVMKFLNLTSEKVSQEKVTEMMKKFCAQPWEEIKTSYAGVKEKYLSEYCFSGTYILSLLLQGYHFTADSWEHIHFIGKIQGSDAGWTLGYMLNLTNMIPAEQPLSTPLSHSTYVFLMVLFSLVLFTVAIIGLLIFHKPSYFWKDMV
Protocol: as §2, §3

B1: antibody I-394 (antibody, human IgG1, kappa, V domains shown)
VH: EVQLQQSGPELVKPGASVKMSCKASGYTFTDYNMHWVKQSHGRTLEWIGYIVPLNGGSTFNQKFKGRATLTVNTSSRTAYMELRSLTSEDSAAYYCARGGTRFAYWGQGTLVTVSA
VL: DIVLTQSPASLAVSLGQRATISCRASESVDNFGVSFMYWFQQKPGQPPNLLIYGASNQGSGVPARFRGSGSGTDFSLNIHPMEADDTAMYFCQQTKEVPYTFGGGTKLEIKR
Does B1 bind [1]?
Result: no binding (tested: about 50 µg/ml)

Does B1 bind [2]?
Result: no binding (tested: about 50 µg/ml)

Does B1 bind (CD39 mutant 19)?
Result: no binding

And the “Median : Comp-Alexa Fluor 647-A” value (CD39 mutant 15)?
The value was 6360.
